Results reported in publication doi:10.1101/2020.04.16.045708 (bioRxiv, 2020).
Numbering of substitutions follows the chain as printed. Values belong to the binder of their own block, whether it stands above or below them.

Columns and labels:
C9ORF72-SMCR8^M3 complex = molecular target: T1, C9ORF72-SMCR8^M3 complex (human, UniProt Q96LT7;Q8TEV9, E907A | K910A | Y913A | M914A); test: pull-down
T1 sequence 1: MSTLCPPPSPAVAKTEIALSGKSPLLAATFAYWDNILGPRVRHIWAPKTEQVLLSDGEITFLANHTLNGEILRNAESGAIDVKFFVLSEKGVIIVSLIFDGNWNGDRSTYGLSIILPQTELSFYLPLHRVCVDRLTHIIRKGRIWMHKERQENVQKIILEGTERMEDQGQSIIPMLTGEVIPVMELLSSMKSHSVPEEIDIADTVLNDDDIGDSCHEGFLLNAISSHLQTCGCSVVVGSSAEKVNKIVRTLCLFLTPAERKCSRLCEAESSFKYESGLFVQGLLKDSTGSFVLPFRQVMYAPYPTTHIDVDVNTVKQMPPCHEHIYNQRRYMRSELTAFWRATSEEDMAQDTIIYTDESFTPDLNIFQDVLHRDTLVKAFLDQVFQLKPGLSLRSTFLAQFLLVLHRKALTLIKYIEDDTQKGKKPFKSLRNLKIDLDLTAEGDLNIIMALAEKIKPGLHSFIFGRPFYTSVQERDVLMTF
T1 sequence 2: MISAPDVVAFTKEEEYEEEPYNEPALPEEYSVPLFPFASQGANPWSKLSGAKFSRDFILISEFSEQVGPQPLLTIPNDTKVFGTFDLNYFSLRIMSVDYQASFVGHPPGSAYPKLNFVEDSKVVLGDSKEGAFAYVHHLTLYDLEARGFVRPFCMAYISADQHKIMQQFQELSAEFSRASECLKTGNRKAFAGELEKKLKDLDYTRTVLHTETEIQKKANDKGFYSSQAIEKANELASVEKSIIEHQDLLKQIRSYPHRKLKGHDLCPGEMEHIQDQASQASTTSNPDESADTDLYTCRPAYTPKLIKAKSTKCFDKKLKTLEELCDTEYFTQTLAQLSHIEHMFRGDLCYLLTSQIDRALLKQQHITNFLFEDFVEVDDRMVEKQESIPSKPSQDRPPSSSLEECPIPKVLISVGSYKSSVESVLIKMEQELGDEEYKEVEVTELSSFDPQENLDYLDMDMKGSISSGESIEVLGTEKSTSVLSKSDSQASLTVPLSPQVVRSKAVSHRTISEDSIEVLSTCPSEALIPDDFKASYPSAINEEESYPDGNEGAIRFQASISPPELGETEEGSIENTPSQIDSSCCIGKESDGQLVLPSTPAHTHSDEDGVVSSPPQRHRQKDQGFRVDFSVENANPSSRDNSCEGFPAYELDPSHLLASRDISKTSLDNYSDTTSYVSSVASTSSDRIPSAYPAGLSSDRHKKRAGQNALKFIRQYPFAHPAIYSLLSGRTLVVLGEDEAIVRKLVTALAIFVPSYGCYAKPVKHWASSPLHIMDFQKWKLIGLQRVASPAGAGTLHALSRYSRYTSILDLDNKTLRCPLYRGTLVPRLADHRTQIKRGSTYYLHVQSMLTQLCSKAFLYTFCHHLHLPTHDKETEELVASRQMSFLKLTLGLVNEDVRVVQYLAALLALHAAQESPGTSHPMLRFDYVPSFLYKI

C9ORF72-SMCR8^M2 complex = molecular target: T2, C9ORF72-SMCR8^M2 complex (human, UniProt Q96LT7;Q8TEV9, T862A | F863A | H865A | L867A); test: pull-down
T2 sequence 1: T1 sequence 1
T2 sequence 2: T1 sequence 2 with T862A, F863A, H865A, L867A, A907E, A910K, A913Y, A914M

C9ORF72-SMCR8 complex = molecular target: T3, C9ORF72-SMCR8 complex (human, UniProt Q96LT7;Q8TEV9); test: SEC
T3 sequence 1: T1 sequence 1
T3 sequence 2: T1 sequence 2 with A907E, A910K, A913Y, A914M

AUC = molecular target: the molecule itself; test: AUC
C9ORF72 = molecular target: T4, C9ORF72 (human, UniProt Q96LT7 1-481); test: AUC
T4 sequence: T1 sequence 1

- binding result (C9ORF72-SMCR8^M3 complex): binds
- binding result (C9ORF72-SMCR8^M2 complex): binds
- stoichiometry N (C9ORF72-SMCR8 complex): 1
B1: WDR41 (WD40 repeat-containing protein 41) (natural protein)
chain: MLRWLIGGGREPQGLAEKSPLQTIGEEQTQNPYTELLVLKAHHDIVRFLVQLDDYRFASAGDDGIVVVWNAQTGEKLLELNGHTQKITAIITFPSLESCEEKNQLILTASADRTVIVWDGDTTRQVQRISCFQSTVKCLTVLQRLDVWLSGGNDLCVWNRKLDLLCKTSHLSDTGISALVEIPKNCVVAAVGKELIIFRLVAPTEGSLEWDILEVKRLLDHQDNILSLINVNDLSFVTGSHVGELIIWDALDWTMQAYERNFWDPSPQLDTQQEIKLCQKSNDISIHHFTCDEENVFAAVGRGLYVYSLQMKRVIACQKTAHDSNVLHVARLPNRQLISCSEDGSVRIWELREKQQLAAEPVPTGFFNMWGFGRVSKQASQPVKKQQENATSCSLELIGDLIGHSSSVEMFLYFEDHGLVTCSADHLIILWKNGERESGLRSLRLFQKLEENGDLYLAV

B2: C9ORF72-SMCR8-WDR41 complex (complex)
chain 1: T1 sequence 1
chain 2: T1 sequence 2 with A907E, A910K, A913Y, A914M
chain 3: B1 chain
- stoichiometry N (AUC): 2

- binding result (C9ORF72): binds
B3: SMCR8 Longin domain (SMCR8^Longin), co-expressed with C9ORF72 (domain or fragment)
chain: MISAPDVVAFTKEEEYEEEPYNEPALPEEYSVPLFPFASQGANPWSKLSGAKFSRDFILISEFSEQVGPQPLLTIPNDTKVFGTFDLNYFSLRIMSVDYQASFVGHPPGSAYPKLNFVEDSKVVLGDSKEGAFAYVHHLTLYDLEARGFVRPFCMAYISADQHKIMQQFQELSAEFSRASECLKTGNRKAFAGELEKKLKDLDYTRTVLHTETEIQKKANDKGFYSSQAIEKANELASVEKSIIEHQDLLKQIRSYPHRKLKGHDLCPGEMEHIQDQASQASTTSNPDESADTDLYTCRPAYTPKLIKAKSTKCFDKKLKTLEELCDTEYFTQTLAQLSHIEHMFRGDL
